{
  "source": "the nanobody polyreactivity screen of Harvey et al. (2022)",
  "data": [
    {"assay": "yeast display, Sf9 membrane polyspecificity reagent, FACS + sequencing; frameworks hold sequencing errors", "outline": "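Genes from sorted yeast were amplified by colony PCR, read by MiSeq 2 × 250 sequencing and filtered on CDR length. These cells carried a synthetic nanobody library in Saccharomyces cerevisiae BJ5465 and were sorted by FACS into low and high (top ~1%) gates on anti-HA and streptavidin fluorescence. Polyreactivity is labelled according to the gate of origin.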", "values": [
      {"sequence": "QVQLVESGGGLVQAGGSLRLSCAASGSTFGWYAMGWYRQAPGKERELVAAISTSGGSSYYADSVKGRFTISRDNAKNTVYLQMNSLKPEDTAVYYCNGYYRRYSITFDRYDYWGQGSQVTVSS", "polyreactivity (PSR sort gate)": "high polyreactivity"},
      {"sequence": "QVQLVESGGGLVQAGGSLRLSCAASGSTFGWYAMGWYRQAPGKERELVATISSGGSTYYADSVKGRFTISRDNAKNTVYLQMNCLKPEDTAVYYCAADYLTPWVYWFSYGLDYWGQGTQVTVSS", "polyreactivity (PSR sort gate)": "low polyreactivity"},
      {"sequence": "QVQLVESGGGLVQAGGSLRLSCAASGSTFGWYTMGWYRQAPGKERELVATISYGGGITNYADSVKGRFTISRDNAKNTVYLQMNSLKPEDTAVYYCAARGDGVTNPFGYWGQGTQVTVSS", "polyreactivity (PSR sort gate)": "high polyreactivity"},
      {"sequence": "QVQLVESGGGLVQAGGSLRLSCAASGSTFGWYTMGWYRQAPGKERELVATISYGGGITNYADSVKGRFTMSRDNAKNTVDLQMNSLKPEDTAVYYWAVDNTGRSWPYDYWGQGTQVTVSS", "polyreactivity (PSR sort gate)": "low polyreactivity"},
      {"sequence": "QVQLVESGGGLVQAGGSLRLSCAASGSTFGYAMGWNRQAPGKERELVAAINWSGSRTYYADSVKGRFTISRDNAKNTVYLQMNSLKPEDTAVYYCAVLYAGDSPDFDYWGQGSQVTVSS", "polyreactivity (PSR sort gate)": "high polyreactivity"},
      {"sequence": "QVQLVESGGGLVQAGGSLRLSCAASGSTFGYNAMGWYRQAPGKEREFVARIRSSGSTTYADSVKGRFTISRDNAKNTVYLQMNSLKPEDTAVYYCAATFRGRYAYYYWGQGTQVTVSS", "polyreactivity (PSR sort gate)": "high polyreactivity"},
      {"sequence": "QVQLVESGGGLVQAGGSLRLSCAASGSTFGYNAMGWYRQAPGKERELVAAIRISGGTTYYADSVKGRFTSSRDNAKNTVYLQMNSPKPSDTAVYYCAAGTAGTTGSPKFSGYGYDYWGQGTQVTVSS", "polyreactivity (PSR sort gate)": "low polyreactivity"},
      {"sequence": "QVQLVESGGGLVQAGGSLRLSCAASGSTFGYNAMGWYRQAPGKERELVAAITRRGGITYYADSVKGRFTISRDNAKNTVYLQMNSLKPEDTAVYYCAKRLGYPGNSRNYYYWGQGTQVTVSS", "polyreactivity (PSR sort gate)": "high polyreactivity"},
      {"sequence": "QVQLVESGGGLVQAGGSLRLSCAASGSTFGYNAMGWYRQAPGKERELVAASSRSGGRTYYADSVKGRFTISRDNAKNTVYLQMNSLKPEDTAVYYCATYYTNKVPARYYWGQGTQVTVSS", "polyreactivity (PSR sort gate)": "high polyreactivity"},
      {"sequence": "QVQLVESGGGLVQAGGSLRLSCAASGSTFGYNAMGWYRQAPGKERELVAGISSGGSTNYADSVKGRFTISRDNAKNTVYLQMNSLKPEDTAVYYCNVDERQFSTVYPYRQFDYWGQVTQVTVSS", "polyreactivity (PSR sort gate)": "low polyreactivity"},
      {"sequence": "QVQLVESGGGLVQAGGSLRLSCAASGSTFGYNAMGWYRQAPGKERELVAGITGSGTRTYYADSVKGRFTISRDNAKNTVYLQMNSLKPEDTAVYYCAATPTRRYYRQSAYDYWGQGTQVTVSS", "polyreactivity (PSR sort gate)": "high polyreactivity"},
      {"sequence": "QVQLVESGGGLVQAGGSLRLSCAASGSTFGYNAMGWYRQAPGTERELVAAISSRGGSTYYADSVKGRFTISRDNAKNTVYLQMNSLKPDDTAVYYCAADPPNGAEYYWGQGTQVTGSS", "polyreactivity (PSR sort gate)": "high polyreactivity"},
      {"sequence": "QVQLVESGGGLVQAGGSLRLSCAASGSTFGYYAMGWYRPAPGKERELVAAINVSGGRTYYADSVKGRFTISRDNAKNTVYLQMNSLKPEDTAVYYCAAQRPEYRAGRYNYWGQGTQVTVSS", "polyreactivity (PSR sort gate)": "high polyreactivity"},
      {"sequence": "QVQLVESGGGLVQAGGSLRLSCAASGSTFGYYAMGWYRQAPGKERELVAAISWSGGSTYYADSVKGRFTISRDNAKNTVYLQMNSLKPEDTAVYYCNKVRGKTYYGEGDYWGQGTQVTVSS", "polyreactivity (PSR sort gate)": "high polyreactivity"},
      {"sequence": "QVQLVESGGGLVQAGGSLRLSCAASGSTFGYYAMGWYRQAPGKERELVAAITSGASTNYADSVKGRFTISRDNAKNTVYLQMNSLKPEDTAVYYCAAANLQYGKDVQGDYWGQGTQVTVSS", "polyreactivity (PSR sort gate)": "low polyreactivity"},
      {"sequence": "QVQLVESGGGLVQAGGSLRLSCAASGSTFGYYAMGWYRQAPGKERELVAAITSNDGSTNYADSVKGRFTISRDNAKKTVYLQMNSLKPEDTAVYYCNARSFVAVISSFDYWGQGTQVTVSS", "polyreactivity (PSR sort gate)": "low polyreactivity"},
      {"sequence": "QVQLVESGGGLVQAGGSLRLSCAASGSTFGYYAMGWYRQAPGKERELVAAITWGGASTDYADSVKGRFTISRDNAKNTVYLQMNSLKPEDTAVYYCAKDNWDNPRPTSEMDYWGQGTQVTVSS", "polyreactivity (PSR sort gate)": "low polyreactivity"},
      {"sequence": "QVQLVESGGGLVQAGGSLRLSCAASGSTFGYYAMGWYRQAPGKERELVAAITYSGGGTYYADSVKGRFTISRDNAKNTVYLQMNSLKPEDTAVYYCAATIPYSLYGYDYWGQGTQVTVSS", "polyreactivity (PSR sort gate)": "low polyreactivity"},
      {"sequence": "QVQLVESGGGLVQAGGSLRLSCAASGSTFGYYAMGWYRQAPGKERELVASINWRGDSTYYADSVKGRFTISRDNAKNTVYLQMNSLKPEDTAVYYCNKAYRRRYVQGEYWGQGTQVSVSS", "polyreactivity (PSR sort gate)": "high polyreactivity"},
      {"sequence": "QVQLVESGGGLVQAGGSLRLSCAASGSTFGYYAMGWYRQAPGKERELVASITWGGGSTYYADSVKGRFTISRDNAKNTVYLQMNSLKPEDTAVYYCAATILGGTWGYGSYTYYYWGHGTQVTVSS", "polyreactivity (PSR sort gate)": "low polyreactivity"},
      {"sequence": "QVQLVESGGGLVQAGGSLRLSCAASGSTFGYYAMGWYRQAPGKERELVATINWSGGSTYYADSEKGRFTISRDNAKNTVYLQMISLKPEDTAVYYCAADPYLQYYWAYDYWGQGTQVTVSS", "polyreactivity (PSR sort gate)": "low polyreactivity"},
      {"sequence": "QVQLVESGGGLVQAGGSLRLSCAASGSTFGYYAMGWYRQAPGKERELVATITIGGSTHYADSVKGRFTISRDNAKNTVYLQMNSLKPEDTAVYYCAKRYYTNRHSRAFGFWGQGSQVTVSS", "polyreactivity (PSR sort gate)": "high polyreactivity"},
      {"sequence": "QVQLVESGGGLVQAGGSLRLSCAASGSTFGYYAMGWYRQAPGKERELVATITSSGDNTYADSVKGRFTISRDNAKNTVYLQMNSLKPEDTAVYYCNARYRKSSRPVYEPYERYYWGQGTQVTVSS", "polyreactivity (PSR sort gate)": "high polyreactivity"},
      {"sequence": "QVQLVESGGGLVQAGGSLRLSCAASGSTFGYYAMGWYRQAPGNEREFVAAITYGDGNTYYADSVKGRFTISRDNAKNTVYLQMNRLKPEDTAVYYCAKYYWAPTGAHGGYGYWGQGTQVTVSS", "polyreactivity (PSR sort gate)": "low polyreactivity"},
      {"sequence": "QVQLVESGGGLVQAGGSLRLSCAASGSTFGYYGMGWYRQAPGKERELVAAISTGGRTNYADSVKGRFTISRDNAKNTVYLQMNSLKPEDTAVYYCAADFLSAAYRPSWYRFDYWGQGTQVTVSS", "polyreactivity (PSR sort gate)": "low polyreactivity"},
      {"sequence": "QVQLVESGGGLVQAGGSLRLSCAASGSTFGYYGMGWYRQAPGKERELVAAISTGGRTNYADSVKGRFTISRDNAKNTVYLQMNSLKPEDTAVYYCAADFLSPAYRPSWYRFDYWGQGTQVTVSS", "polyreactivity (PSR sort gate)": "low polyreactivity"},
      {"sequence": "QVQLVESGGGLVQAGGSLRLSCAASGSTFGYYTMGWYRQAPGKERELVAAITGGGTTYYADSVKGRFTISRDNAKNTVYLQMNSLKPEDYAVYYCAAQARYYWGTTYEYWGQGTQVTVSS", "polyreactivity (PSR sort gate)": "high polyreactivity"},
      {"sequence": "QVQLVESGGGLVQAGGSLRLSCAASGSTFGYYTMGWYRQAPGKERELVAAITKSGGGTYYADSVKGRFTISRDNAKNTVYLQMNSLKPEDTAVYYCNALYDYYDPYGSWGQGTQVTVSS", "polyreactivity (PSR sort gate)": "high polyreactivity"},
      {"sequence": "QVQLVESGGGLVQAGGSLRLSCAASGSTFHAYAMGWYRQAPGKEREMVAAISWRGGSTYYADSVKGRFTISRDNAKNTVYLQMNSLKPEDTAVYYCAASVQGLFGTSGLEGVDYWGQGTQVTVSS", "polyreactivity (PSR sort gate)": "high polyreactivity"},
      {"sequence": "QVQLVESGGGLVQAGGSLRLSCAASGSTFHDKAMGWYRQAPGKERELVAAITKTAGSTYYADSVKGRFTISRDNAKNTVYLQMNSMKPEDTAVYYCNAKTYHSRRKVLRFDYWGQGTQVTVSS", "polyreactivity (PSR sort gate)": "low polyreactivity"},
      {"sequence": "QVQLVESGGGLVQAGGSLRLSCAASGSTFHHYAMGWYRQAPGKERELVAAITTSGGRTYYADSVKGRFTISRDNAKNTVYLQMNSLKPEDTAVYYCAADRFFYRGGYYYWGQGTQVTVSS", "polyreactivity (PSR sort gate)": "high polyreactivity"},
      {"sequence": "QVQLVESGGGLVQAGGSLRLSCAASGSTFHLYTMGWSRQAPGKERELVAGISRRGGTTYYADSVKGRFTISRDNAKNTVYLQMNSLKPEDTAVYYCAAVYRTYGIGPNNYWGQGTQVTVSS", "polyreactivity (PSR sort gate)": "high polyreactivity"},
      {"sequence": "QVQLVESGGGLVQAGGSLRLSCAASGSTFHNYAMGCYRQAPGKERELVAGISVRGGGTYYADSVKGRFTISRDNAKNTVYVQMNSLKPEDTAVYYCNARSWYYVWRKGYRHGDYWGQGTQVTVSS", "polyreactivity (PSR sort gate)": "high polyreactivity"},
      {"sequence": "QVQLVESGGGLVQAGGSLRLSCAASGSTFHPNAMGWYIQAPGKERQLVAAISRGGSTNYADSVKGRFTISRDNAKNTVYLQMNSLKPEDTAVYYCAKDFFGISSDPVDMDYWGQGTQVTVSS", "polyreactivity (PSR sort gate)": "low polyreactivity"},
      {"sequence": "QVQLVESGGGLVQAGGSLRLSCAASGSTFHPNTMGWYRQAPGKERELGARISSGGSTNYADSVKGRFTISRDNAKNTVYLQMNSLKPEDTAVYYCAARTAFSGARGRGGYWGQGTQVTVSS", "polyreactivity (PSR sort gate)": "high polyreactivity"},
      {"sequence": "QVQLVESGGGLVQAGGSLRLSCAASGSTFHSYAMGWYRQAPGKERELVAAISSSGGSTYYADSVKGRFTISRDNAKNTVYLQMNSLKPEDTAVYYCAADWRTKGYDSLGQGTQVTVSS", "polyreactivity (PSR sort gate)": "high polyreactivity"},
      {"sequence": "QVQLVESGGGLVQAGGSLRLSCAASGSTFHTFAMGWYRPAPGKERELVAAINRRTGGTYYADSVKGRFTISRDNAKNTVDLQMNSLKPEDTAVFYCATDWFSYRGGIFDSWGQGTQVTVSS", "polyreactivity (PSR sort gate)": "low polyreactivity"},
      {"sequence": "QVQLVESGGGLVQAGGSLRLSCAASGSTFHTYAMGWYRQAPGKERELVASISYGVTTYYADSVKGRFTISRDNAKNTVYLQMNSLKPEDTAVYYCAREGYKWVYLSYGYWGQGTQVTVSS", "polyreactivity (PSR sort gate)": "low polyreactivity"},
      {"sequence": "QVQLVESGGGLVQAGGSLRLSCAASGSTFHWYTMGWYRPAPGKESELVAAITSGTSTYYADSVKGRFTISRDNSKITVYLQMNSLKPEDTAVYYCNTEGVWSVYGLYDYWGQGTQVTVSS", "polyreactivity (PSR sort gate)": "low polyreactivity"},
      {"sequence": "QVQLVESGGGLVQAGGSLRLSCAASGSTFHYYAMGWYRQAPGKERELVAAINSGARTYYADSVKGRFTISRDNAKNTVYLQMNSLKPEDTAVYYCNKAFQWSGGQVSYDFWGQGTQVTVSS", "polyreactivity (PSR sort gate)": "low polyreactivity"},
      {"sequence": "QVQLVESGGGLVQAGGSLRLSCAASGSTFHYYAMGWYRQAPGKERELVAAISYRGSTYYADSVKGRFTISRDNAKNTVYLQMNSLKPEDTAVYYCAVVSSRGRRIYGYWGQGTQVTVSS", "polyreactivity (PSR sort gate)": "high polyreactivity"},
      {"sequence": "QVQLVESGGGLVQAGGSLRLSCAASGSTFHYYAMGWYRQAPGKERELVAAISYSGGRTYYADSVKGRFTISRDNAKNTVYLQMNSLKPEDTAVYYCAARRSRTGRDESWGQGTQVTVSS", "polyreactivity (PSR sort gate)": "high polyreactivity"},
      {"sequence": "QVQLVESGGGLVQAGGSLRLSCAASGSTFIANAMGWYRKAPGKERELVAAISQSGDSTYYADSVKGRFTISRENAKNTVYLQMNSMKPEDTAVYYCAAEDVDGYEYWGQGTQVTVSS", "polyreactivity (PSR sort gate)": "high polyreactivity"}
    ]}
  ]
}
